Data reported in patent publication US20030124132A1 (University of Texas, published 2003).

Key:
bEnd 3 cells = assay: Cell bound coagulation assay on stimulated endothelial cells (Factor Xa generation); format: cell-based, mouse
Protocol: (§1) To assay the coagulation induction of stimulated versus unstimulated endothelial cells, bend 3 cells were seeded in 48 well tissue culture plates at a density of 1×10^4 cells per well and allowed to adhere overnight. Cells were stimulated with endotoxin (0.5 μg/ml and 10 μg/ml) or TNFα (500 U/ml) for 4 h at 37° C. […] After incubation for 45 min at room temperature, cells were washed and incubated with various coagulation factor mixes as follows: (1) 0.5 μg/ml factor VIIa in a mix containing 2.8 μg/ml factor IX, 3.4 μg/ml factor X, 50 μM phospholipids, in calcium buffer (as specified above); (2) 0.01 μg/ml factor VIIa in a mix as in (1); (3) 2 μg/ml factor VII (Calbiochem-Novabiochem, San Diego, Calif.) in a mix as in (1); (4) 2 μg/ml factor VII. 0.01 μg/ml factor VIIa in a mix as in (1). The supernatant of wells was transferred into a 96 well ELISA plate. Substrate S2765 was added and Factor Xa generation measured alongside different concentrations of Factor Xa standard (7 nkatS2222; 0.7 nkatS2222; 0.07 nkatS2222). OD405 nm values were calculated as nkatS2222 Factor Xa from the Factor Xa standard curve.
as §1, with “bEnd” for “To assay the coagulation induction of stimulated versus unstimulated endothelial cells, bend”, “with” for “with various”, “mix” for “mixes”, “follows:” for “follows: (1)”, “buffer;” for “buffer (as specified above); (2) 0.01 μg/ml factor VIIa in a mix as in (1); (3) 2 μg/ml factor VII (Calbiochem-Novabiochem, San Diego, Calif.) in a mix as in (1); (4) 2 μg/ml factor VII. 0.01 μg/ml factor VIIa in a mix as in (1). The”

[1] = test system: tissue factor on HUVEC cells; assay: FACS analysis of tissue factor expression on endothelial cells; format: cell-based, human; details: TNFα 500 U/ml, LPS 10 μg/ml, VEGF 1 nM, alone or in combination, 6 h
Protocol: To analyze tissue factor expression on the surface of endothelial cells, HUVEC cells were incubated with TNFα (500 U/ml), LPS (10 μg/ml) or vascular endothelial growth factor (VEGF, 1 nM) alone or in combination for 6 h at 37°. Cells were then detached and stained for surface expression of human tissue factor with a sheep-anti-human tissue factor antibody (Haemochrom, Essen, Germany) and an appropriate FITC-conjugated secondary antibody. Fluorescent cells were detected on a flow cytometer (Becton Dickinson, San Jose, Calif.).

[2] = test system: VCAM-1 on mouse endothelial cells; assay: VCAM-1 upregulation on endothelial cells by TNFα (FACS); format: cell-based
Protocol: (§2) Mouse endothelial cells were seeded in 48 well tissue culture plates and allowed to adhere overnight. Cells were stimulated with TNFα at the following concentrations: 500 U/ml; 100 U/ml; 20 U/ml; 4 U/ml; 0.8 U/ml; 0.16 U/ml; and with medium only.
Endothelial cells were then investigated for upregulation of the adhesion molecule VCAM-1 by fluorescence activated cell stain (FACS). To this end, cells were stained with an antibody against murine VCAM-1, followed by an appropriate FITC-conjugated secondary antibody. Fluorescent cells were detected on a flow cytometer (Becton Dickinson, San Jose, Calif.).

mouse endothelial cells = assay: Cell based two stage coagulation assay after TNFα stimulation
Protocol: as §2
Endothelial cells were also tested for coagulant activity in a cell based two stage coagulation assay. After incubation with TNFα, cells were washed and incubated with coagulation factor mix (0.5 μg/ml factor VIIa in a mix containing 2.8 μg/ml factor IX, 3.4 μg/ml factor X, 50 μM phospholipids, in calcium buffer). The supernatant of wells was transferred into a 96 well ELISA plate. Substrate S2765 was added and Factor Xa generation measured.

[3] = test system: L540 human Hodgkin's disease tumors; assay: Growth of L540 tumors after immunoglobulin-tTF conjugate and/or etoposide; format: in vivo, mice; details: day 14
Protocol: (§3) The tumor test systems were: i) L540 human Hodgkin's disease tumors growing in SCID mice; ii) C1300 Muγ (interferon-secreting) neuroblastoma growing in nu/nu mice; iii) H460 human non-small cell lung carcinoma growing in nu/nu mice. To establish solid tumors, 1.5×10^7 tumor cells were injected subcutaneously into the right anterior flank of SCID or BALB/c nu/nu mice (Charles River Labs., Wilmingham, Mass.). When the tumors had grown to various diameters, mice were assigned to different experimental groups, each containing 4 to 9 mice.
(§4) Other mice received equivalent quantities of bispecific antibody alone. The injections were performed over ˜45 seconds into one of the tail veins, followed by 200 μl of saline. The infusions were repeated six days later. Perpendicular tumor diameters were measured at regular intervals and tumor volumes were calculated.
Mice bearing L540 human Hodgkin's disease tumors were treated with a complex of tTF219 and a bispecific antibody together with the anti-cancer drug, etoposide, at a conventional dose.

[4] = test system: A20 lymphoma cells (I-A^d positive), mouse or human plasma; assay: In vitro coagulation assay on A20 cells with capture bispecific antibody B21-2/10H10; format: cell-based
[5] = test system: C1300 Muγ mouse neuroblastoma vessels; assay: In vivo tumor thrombosis by tTF, C1300 Muγ; set-up: species or system BALB/c nu/nu mice
Source text: (§5) Tumor test systems were of four types: i) 3LL mouse lung carcinoma growing subcutaneously in C57BL/6 mice; ii) C1300 mouse neuroblastoma growing subcutaneously in BALB/c nu/nu mice; iii) HT29 human colorectal carcinoma growing subcutaneously in BALB/c nu/nu mice; and iv) C1300 Muγ mouse neuroblastoma growing subcutaneously in BALB/c nu/nu mice. The C1300 Muγ tumor is an interferon-γ secreting transfectant derived from the C1300 tumor (Watanabe et al., 1989).
(§6) To establish tumors, 10^6 to 1.5×10^7 tumor cells were injected subcutaneously into the right anterior flank of the mice. When tumors had grown to various sizes, mice were randomly assigned to different study groups. […] Fab′, or bispecific antibody. Other mice received equivalent quantities IgG, Fab′ or bispecific antibody alone. The injections were performed slowly into one of the tail veins over approximately 45 seconds, usually followed by 200 μl of saline.
(§7) Twenty-four hours after being injected with tTF or immunoglobulin-tTF conjugates, the mice were anesthetized with metophane and were exsanguinated by perfusion with heparinized saline. Tumors and normal tissues were excised and immediately fixed in 3% (v/v) formalin. Paraffin sections were cut and stained with hematoxylin and eosin. Blood vessels having open lumens containing erythrocytes and blood vessels containing thrombi were counted. […]

[6] = test system: C1300 mouse neuroblastoma vessels; assay: In vivo tumor thrombosis by tTF, C1300; set-up: species or system BALB/c nu/nu mice
Source text: as §5, §6, §7

[7] = test system: 3LL mouse lung carcinoma vessels; assay: In vivo tumor thrombosis by tTF, 3LL; set-up: species or system C57BL/6 mice; details: large (>800 mm^3) tumors
Source text: as §5, §6, §7

C1300 Muγ tumors = assay: Anti-tumor effects of tTF and immunoglobulin-tTF in C1300 Muγ tumors; format: in vivo, nu/nu mice; details: 300 mm^3 tumors
Protocol: as §3, §4
Mice bearing small (300 mm^3) C1300 Muγ tumors were injected intravenously with 16-20 μg tTF219. The treatment was repeated one week later. […] One week after the second treatment with tTF219, tumors were 60% of the size of tumors in mice receiving diluent alone. The greater effectiveness of the second injection probably derives from the greater thrombotic action of tTF219 on vessels in large tumors, observed above.
Mice bearing small (300 mm^3) subcutaneous C1300 Muγtumors were treated with tTF219 or with a complex of tTF219 and a bispecific antibody, OX7 Fab′/10H10 Fab′, not directed to a component of the tumor environment. The treatment was repeated 6 days later.

[8] = test system: H460 human lung carcinomas; assay: Anti-tumor effects of tTF219 in H460 tumors; format: in vivo, nu/nu mice
Protocol: as §3, §4
In addition to the effects in mice bearing C1300 Muγ tumors, similar anti-tumor effects were observed using other tumor types. […] The second treatment with tTF219 was given when the tumors were larger (900 mm^3) and caused the tumors to regress to 550 mm^3 before regrowing.

[9] = test system: HT29 human colorectal carcinomas; assay: Anti-tumor effects of tTF219 in HT29 tumors; format: in vivo, Nu/nu mice; details: large (1200 mm^3) tumors, i.v.
Protocol: Anti-tumor effects were also observed in mice bearing HT29 human colorectal carcinomas. Nu/nu mice bearing large (1200 mm^3) tumors on their flanks were injected intravenously with tTF219 or PBS (control), and growth of the tumors was monitored each day for 10 days. The tumors in the tTF219 treated mice discontinued growth for about 7 days after treatment, whereas the tumors in mice treated with PBS continued to grow unchecked.

[10] = test system: HT29 (human colorectal carcinoma) xenograft; assay: Tumor necrosis by tTF constructs with Factor VIIa, HT29 xenograft; format: in vivo, BALB/c nu/nu mice; details: single agents; 24 hours

Question: What does the source list for TNFα?
Answer: Factor Xa generation (bEnd 3 cells; cells stimulated with TNFα (500 U/ml), then incubated with row agent (row Medium = stimulant alone), mix with 0.5 μg/ml factor VIIa): 0.35 nkats2222; Factor Xa generation due to Factor VIIa production (bEnd 3 cells; cells stimulated with TNFα (row Medium = stimulant alone), mix with 2 μg/ml factor VII and 0.01 μg/ml factor VIIa): 1.23 nkats2222; tissue factor expression on the surface of HUVEC [1]: upregulated tissue factor expression; TNFα required for a measurable increase of VCAM-1 expression [2]: 20 U/ml; TNFα at which an increase in coagulation versus negative control could be detected (mouse endothelial cells): 0.16 U/ml; dose for coagulation increase lower than for VCAM-1 increase (mouse endothelial cells): 125 fold

Question: For `COc1cc([C@@H]2c3cc4c(cc3[C@@H](O[C@@H]3O[C@@H]5CO[C@@H](C)O[C@H]5[C@H](O)[C@H]3O)[C@H]3COC(=O)[C@H]23)OCO4)cc(OC)c1O` [etoposide], which average tumor volume [3] is on record?
Answer: Its average tumor volume is 1400 mm^3.

B1: tTF219: residues 1-219 of TF plus an additional glycine at the N-terminus (protein)
chain: GSGTTNTVAAYNLTWKSTNFKTILEWEPKPVNQVYTVQISTKSGDWKSKCFYTTDTECDLTDEIVKDVKQTYLARVFSYPAGNVESTGSAGEPLYENSPEFTPYLETNLGQPTIQSFEQVGTKVNVTVEDERTLVRRNNTFLSLRDVFGKDLIYTLYYWKSSSSGKKTAKTNTNEFLIDVDKGENYCFSVQAVIPSRTVNRKSTDSPVECMGQEKGEFRE
Question: B1 was tested. Which plasma coagulation time ([4]; 10^−10 M tTF219, 13.5 nM Factor VIIa) did it give?
Answer: Its plasma coagulation time is 20 s.

Question: What about the plasma coagulation time ([4]; 10^−10 M tTF219, absence of Factor VIIa) of the same molecule?
Answer: The plasma coagulation time was 60 s.

Question: And the “increase in coagulation-inducing potency” value ([4]; presence of 0.1 nM Factor VIIa)?
Answer: Its value is 2-5 fold.

Question: What about the “enhancement in coagulation-inducing potency” value ([4]; presence of 13.5 nM Factor VIIa) of the same molecule?
Answer: Its value is ~100 fold.

Question: What about the tumor vessel thrombosis ([5]; 24 hours after injection) of the same molecule?
Answer: Its tumor vessel thrombosis is “practically all vessels in all regions of the tumor were thrombosed”.

Question: And the tumor vessel thrombosis ([5]; small (<500 mm^3) tumors)?
Answer: The tumor vessel thrombosis was “largely unaffected”.

Question: And the tumor vessel thrombosis ([6]; large tumors (>1000 mm^3), 24 hours after injection)?
Answer: Its tumor vessel thrombosis is “virtually all vessels were thrombosed”.

Question: What about the tumor vessel thrombosis ([6]; small (<500 mm^3) tumors) of the same molecule?
Answer: Its tumor vessel thrombosis is “largely unaffected”.

Question: What about the “tumor vessels thrombosed, average” value [7] of the same molecule?
Answer: The value was 62%.

Question: And the “tumor size, of tumors in mice receiving diluent alone” value (C1300 Muγ tumors; 16-20 μg i.v., repeated one week later, one week after second treatment)?
Answer: Its value is 60%.

Question: What about the “tumor size, of controls receiving diluent alone” value (C1300 Muγ tumors; treatment repeated 6 days later, fourteen days after the first injection) of the same molecule?
Answer: Its value is 75%.

Question: And the “effect on growth rate” value ([8]; first treatment, tumors 250 mm^3)?
Answer: Its value is “little effect on growth rate”.

Question: And the “tumor volume to which tumors regressed” value ([8]; second treatment, given at 900 mm^3)?
Answer: The value was 550 mm^3.

Question: What about the “time of discontinued tumor growth after treatment” value [9] of the same molecule?
Answer: Its value is “about 7 days”.

Question: And the tumor necrosis [10]?
Answer: The tumor necrosis was “some necrosis”.
